Test results as given in US20210403579A1 (DELINIA, published 2021).
Positions count from the first letter of the chain named.

T1: Human ST2 (human, UniProt Q01638 19-328, limits assumed)
T1 construct: also called human ST2 protein; Interleukin 1 receptor-like 1
T1 sequence (looked up): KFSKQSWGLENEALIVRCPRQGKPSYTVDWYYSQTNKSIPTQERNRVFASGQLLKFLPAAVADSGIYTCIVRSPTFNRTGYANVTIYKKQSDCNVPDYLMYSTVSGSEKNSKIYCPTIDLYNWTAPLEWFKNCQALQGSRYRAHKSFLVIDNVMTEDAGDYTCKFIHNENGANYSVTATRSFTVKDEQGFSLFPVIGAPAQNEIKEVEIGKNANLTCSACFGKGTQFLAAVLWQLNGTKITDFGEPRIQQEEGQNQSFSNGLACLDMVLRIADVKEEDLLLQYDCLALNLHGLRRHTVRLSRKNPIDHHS

B1: Human ST2 IgG1 Antibody 23 (antibody, V domains shown)
VH: EVQLLESGGGLVKPGGSLRLSCAASGFTFSSYWMHWVRQAPGKGLEWVSSISSRSSYIYYADSVKGRFTISRDDSKNTLYLQMNSLKTEDTAVYYCAREGNGMDVWGQGTTVTVSS
VL: DIQMTQSPSSLSASVGDRVTITCQASQDIGSYLNWYQQKPGKAPKLLIYAASSLQSGVPSRFSGSGSGTDFTLTISSLQPEDFATYYCLQSYSTPFTFGGGTKVEIKR
notes: IgG1; also called ST2 Antibody 23
B2: Human ST2 IgG1 Antibody 35 (antibody, V domains shown)
VH: QVQLVQSGAEVKKPGASVKVSCKASAYTFTSYGISWLRQAPGQGLEWMGWINPNSGNTGYAHKFQGRVTMTRDTSTSTVYMELSSLRSEDTAVYYCARGGSGWPTWGQGTLVTVSS
VL: B1 VL with G30S, S31N, A50G, L89Q, S91A, Y92N, S93T, T94F, G100P, E105D
notes: IgG1; also called ST2 Antibody 35
B3: Human ST2 IgG1 Antibody 27 (antibody, V domains shown)
VH: QVQLVQSGAEVKKPGASVKVSCKASGYTFTGQYMHWVRQAPGQGLEWMGIINPSGGSTSYAQKFQGRVTMTRDTSTSTVYMELSSLRSEDTAVYYCAGSYYPYYYYGMDVWGQGTTVTVSS
VL: B1 VL with Q24R, D28N, S31Y, Y32F, N34H, L89Q, T94P, F96L
notes: IgG1; also called ST2 Antibody 27
B4: Human ST2 IgG1 Antibody 31 (antibody, V domains shown)
VH: QVQLVQSGAEVKKPGSSVKVSCKASGGTFSTYAFSWVRQAPGQGLEYMGGIIPMFGTANYAQKFQGRVTITADESTSTAYMELSSLRSEDTAVYYCAGERGYGSLDYWGQGTLVTVSS
VL: B1 VL with Q24R, D28G, Y32W, N34A, L89Q, S93T, T94F, F96Y, G100Q, V104L
notes: IgG1; also called ST2 Antibody 31
B5: Human ST2 IgG1 Antibody 33 (antibody, V domains shown)
VH: QVQLVQSGAEVKKPGSSVKVSCKASGDTFDTYAISWVRQAPGQGLEWMGGIIPIFGTANYAQKFQGRVTITADESTSTAYMELSSLRSEDTAVYYCARSRGRGYSYGSGLFDYWGQGTLVTVSS
VL: DIVMTQSPLSLPVTPGEPASISCRSSESLLITNGFNYIDWYLQKPGQSPQLLIYLGSNRAAGVPDRFSGSGSGTDFTLKISRVEAEDVGVYYCMQALQTPITFGQGTKVEIKR
notes: IgG1; also called ST2 Antibody 33
B6: Human ST2 IgG1 Antibody 26 (antibody, V domains shown)
VH: QVQLVQSGAEVKKPGSSVKVSCKASGYTFSDYYMHWVRQAPGQGLEWMGGILPVFGTATYAQKFQGRVTITADESTSTAYMELSSLRSEDTAVYYCARGFGYFDYWGQGTLVTVSS
VL: not shown
notes: IgG1; also called ST2 Antibody 26
B7: Human ST2 IgG1 Antibody 32 (antibody, V domains shown)
VH: EVQLLESGGGLVQPGGSLRLSCAASGFTFSNSDMNWVRQAPGKGLEWVSFISSSSGYTYYADSVKGRFTISRDNSKNTLYLQMNSLRAEDTAVYYCARANNNWNFYFDYWGQGTLVTVSS
VL: DIQMTQSPSSLSASVGDRVTITCRASQSINNWLAWYQQKPGKAPKLLIYSASSLQSGVPSRFSGSGSGTDFTLTISSLQPEDFATYYCQQSYDTPITFGQGTKVEIKR
notes: IgG1; also called ST2 Antibody 32
B8: Human ST2 IgG1 Antibody 34 (antibody, V domains shown)
VH: QVQLVQSGAEVKKPGASVKVSCKASGQTFTDYAINWVRQAPGQGLEWMGWMNPNSGNTGYAQKFQGRVTMTRDTSTSTVYMELSSLRSEDTAVYYCARETLEQQLPFDYWGQGTLVTVSS
VL: B7 VL with N30S, N31S, S50A, S53T, S91Y, D93S, P95L, I96Y
notes: IgG1; also called ST2 Antibody 34
B9: Human ST2 IgG1 Antibody 25 (antibody, V domains shown)
VH: QVQLVQSGAEVKKPGSSVKVSCKASGGTFSNYAISWVRQAPGQGLEWMGWISAYNGNTNYAQKFQGRVTMTRDTSTSTVYMELSSLRSEDTAVYYCARSTNALDYWGQGTLVTVSS
VL: DIQMTQSPSSLSASVGDRVTITCRASQGIRSNLDWYQQKPGKAPKLLISIVSNLGSGVPSRFSGSGSGTDFTLTISSLQPEDFATYYCLQHNSNPPTFGGGTKVEIKR
notes: IgG1; also called ST2 Antibody 25
B10: Human ST2 IgG1 Antibody 21 (antibody, V domains shown)
VH: QVQLVQSGAEVKKPGASVKVSCKASGYTFSNHYMHWVRQAPGQGLEWMGWVNPTSGNTGYAQKFQGRVTMTRDTSTSTVYMELSSLRSEDTAVYYCARDLGVTYFDLWGRGTLVTVSS
VL: DIQMTQSPSSLSASVGDRVTITCRASQGISSWLAWYQQKPGKAPKLLIYEASHLETGVPSRFSGSGSGTDFTLTISSLQPEDFATYYCLQDYNYPLTFGGGTKVEIKR
notes: IgG1; also called ST2 Antibody 21
B11: Human ST2 IgG1 Antibody 29 (antibody, V domains shown)
VH: QVQLVQSGAEVKKPGASVKVSCKASGGTFTGYFIHWVRQAPGQGLEWMGWMNPNSGNTGYAQKFQGRVTMTRDTSTSTVYMELSSLRSEDTAMYYCAREGQGVVPVDYWGQGTLVTVSS
VL: B10 VL with G28S, E50D, S52T, H53N, G100Q, G101S
notes: IgG1; also called ST2 Antibody 29
B12: Human ST2 IgG1 Antibody 22 (antibody, V domains shown)
VH: EVQLLESGGGLVQPGGSLRLSCAASGFKFRTFWMNWVRQAPGKGLEWVSVISNGGDATHYADSVKGRFTISRDNSKNTLYLQMNSLRAEDTAVYYCARVDCSGGSCYLGYWGQGTLVTVSS
VL: DIQMTQSPSSLSASVGDRVTITCRASESIGRYLNWYQQKPGKAPKLLIYGTSNLESGVPSRFSGSGSGTDFTLTISSLQPEDFATYYCQQSYSTPPTFGQGTKVEIKR
notes: IgG1; also called ST2 Antibody 22
B13: Human ST2 IgG1 Antibody 24 (antibody, V domains shown)
VH: QVQLVQSGAEVKKPGSSVKVSCKASGGTFSSYAISWVRQAPGQGLEWMGGIIPIFGTANYAQKFQGRVTITADESTSTAYMELSSLRSEDTAVYYCAKTPLGRGYGLFDYWGQGTLVTVSS
VL: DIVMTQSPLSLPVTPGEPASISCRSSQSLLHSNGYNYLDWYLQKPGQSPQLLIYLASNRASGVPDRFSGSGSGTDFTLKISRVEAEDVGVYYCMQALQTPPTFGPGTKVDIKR
notes: IgG1; also called ST2 Antibody 24
B14: Human ST2 IgG1 Antibody 28 (antibody, V domains shown)
VH: QVQLVQSGAEVKKPGSSVKVSCKASGGTFGNYGINWVRQAPGQGLEWMGGIIPVFGTTNYAQKFQGRVTITADESTSTAYMELSSLRSEDTAVYYCARGLRYYYGMDVWGQGTTVTVSS
VL: DIVMTQSPLSLPVTPGEPASISCRSSQSLLHSNGYNYLDWYLQKPGQSPQLLIYGASTLQSGVPDRFSGSGSGTDFTLKISRVEAEDVGVYYCMQALQNPLTFGGGTKVEIKR
notes: IgG1; also called ST2 Antibody 28
B15: Human ST2 IgG1 Antibody 30 (antibody, V domains shown)
VH: QVQLVQSGAEVKKPGSSVKVSCKASGYTFTTYGITWVRQAPGQGLEWMGGIIPIFGTANYAQKFQGRVTITADESTSTAYMELSSLRSEDTAVYYCAKLSGSSGSWDYYYYYGMDVWGQGTLVTVSS
VL: B14 VL with G55A, T58N, N99T, L101I, G105Q, G106S, K108R, V109L
notes: IgG1; also called ST2 Antibody 30

Biological target: T1, Human ST2
Experiment: SPR (Carterra), antibody immobilized, ST2 analyte
Method: Binding of the reformatted human ST2 antibodies to the human and mouse ST2 proteins was evaluated by surface plasmon resonance (SPR), using a high throughput antibody screening and characterization platform from Carterra (Salt Lake City, Utah).

| Binder | Kd | koff | kon |
| --- | --- | --- | --- |
| B1 | 688 nM | 0.1 s⁻¹ | 150000 M⁻¹ s⁻¹ |
| B2 | 104 nM | 0.016 s⁻¹ | 160000 M⁻¹ s⁻¹ |
| B3 | 106 nM | 0.048 s⁻¹ | 450000 M⁻¹ s⁻¹ |
| B4 | 274 nM | 0.12 s⁻¹ | 430000 M⁻¹ s⁻¹ |
| B5 | 529 nM | 0.13 s⁻¹ | 240000 M⁻¹ s⁻¹ |
| B6 | 264 nM | 0.14 s⁻¹ | 530000 M⁻¹ s⁻¹ |
| B7 | 252 nM | 0.061 s⁻¹ | 240000 M⁻¹ s⁻¹ |
| B8 | 109 nM | 0.0011 s⁻¹ | 10000 M⁻¹ s⁻¹ |
| B9 | 193 nM | 0.03 s⁻¹ | 150000 M⁻¹ s⁻¹ |
| B10 | 805 nM | 0.017 s⁻¹ | 21000 M⁻¹ s⁻¹ |
| B11 | 480 nM | 0.0065 s⁻¹ | 14000 M⁻¹ s⁻¹ |
| B12 | 90 nM | 0.048 s⁻¹ | 530000 M⁻¹ s⁻¹ |
| B13 | 1200 nM | 0.055 s⁻¹ | 45000 M⁻¹ s⁻¹ |
| B14 | 426 nM | 0.066 s⁻¹ | 160000 M⁻¹ s⁻¹ |
| B15 | 155 nM | 0.029 s⁻¹ | 190000 M⁻¹ s⁻¹ |
